Experimental data: publication PMC8833184
Numbering of substitutions follows the chain as printed.

T1: SF3A1-UBL WT (human, UniProt Q15459 704-793)
T1 sequence: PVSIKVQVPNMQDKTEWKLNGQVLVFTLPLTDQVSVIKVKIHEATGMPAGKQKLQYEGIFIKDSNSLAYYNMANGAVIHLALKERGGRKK

T2: SF3A1-UBL G789I (human, UniProt Q15459 704-793, G789I)
T2 sequence: T1 sequence with G86I

T3: SF3A1-UBL K754A (human, UniProt Q15459 704-793, K754A)
T3 sequence: T1 sequence with K51A

T4: SF3A1-UBL K765A (human, UniProt Q15459 704-793, K765A)
T4 sequence: T1 sequence with K62A

T5: SF3A1-UBL K717A (human, UniProt Q15459 704-793, K717A)
T5 sequence: T1 sequence with K14A

T6: SF3A1-UBL F763A (human, UniProt Q15459 704-793, F763A)
T6 sequence: T1 sequence with F60A

T7: SF3A1-UBL G790I (human, UniProt Q15459 704-793, G790I)
T7 sequence: T1 sequence with G87I

T8: SF3A1-UBL R791A (human, UniProt Q15459 704-793, R791A)
T8 sequence: T1 sequence with R88A


Key:
[1] = biological target: T1, SF3A1-UBL WT; experiment: NMR
[2] = biological target: T2, SF3A1-UBL G789I; experiment: SPR
[3] = biological target: T3, SF3A1-UBL K754A; experiment: SPR
[4] = biological target: T4, SF3A1-UBL K765A; experiment: SPR
[5] = biological target: T5, SF3A1-UBL K717A; experiment: SPR
[6] = biological target: T6, SF3A1-UBL F763A; experiment: SPR
[7] = biological target: T1, SF3A1-UBL WT; experiment: SPR
[8] = biological target: T7, SF3A1-UBL G790I; experiment: SPR
[9] = biological target: T8, SF3A1-UBL R791A; experiment: SPR

| Binder | binding result [1] | Kd [2] | Kd [3] | Kd [4] | Kd [5] | Kd [6] | Kd [7] | Kd [8] | Kd [9] |
| --- | --- | --- | --- | --- | --- | --- | --- | --- | --- |
| GGGACUGCGUUCGCGCUUUCCC (structured_RNA) [22 nt U1-SL4] | binds |  |  |  |  |  |  |  |  |
| GGGGACUGCGUUCGCGCUUUCCCC (structured_RNA) [Biotin-U1-SL4-WT] |  | 41.9 ± 5.7 µM | 16.7 ± 4.38 µM | 7.89 ± 0.71 µM | 1.59 ± 0.27 µM | 2.76 ± 0.3 µM | 0.332 ± 0.03 µM | 14.1 ± 3.12 µM | 5.97 ± 0.5 µM |
